Consider two substances from patent US20240261333A1, “NOVEL TARGETS FOR ENHANCING ANTI-TUMOR IMMUNITY” (THE BROAD INSTITUTE, INC., priority 2021, published 2024).

One assay deals with SRP14 (human) (UniProt P37108). As to the kind of experiment: co-IP with mouse anti-FLAG from lysate of cells overexpressing C-FLAG B3GNT2, then mass spectrometry.
Another assay concerns the target TIMP3 (human) (UniProt P35625). The description is as above.
Another assay has as its target TCP1 (human) (UniProt P17987). Described as above.
Another assay concerns the target TAF15 (human) (UniProt Q92804). The description is as above.
Another assay deals with TFAM (human) (UniProt Q00059). The assay is described as above.
The target of the next assay is EIF3I (human) (UniProt Q13347). The description is as above.
For another assay, the target named is MAGED2 (human) (UniProt Q9UNF1). The description is as above.
Another assay addresses SUPT16H (human) (UniProt Q9Y5B9). Described as above.
A further assay addresses DHX9 (human) (UniProt Q08211). Kind of assay: co-IP with anti-FLAG, C-FLAG B3GNT2, mass spectrometry.
Another assay concerns the target CCT3 (human) (UniProt P49368). The assay is described as above.
For the next assay, the target named is RPL8 (human) (UniProt P62917). The assay is described as above.
The target in another assay is EIF3A (human) (UniProt Q14152). The assay is described as above.
In a further assay the target is CPT1A (human) (UniProt P50416). The assay is described as above.
In a further assay the target is EMILIN1 (human) (UniProt Q9Y6C2). The assay is described as above.
The target in another assay is TTC13 (human) (UniProt Q8NBP0). Described as above.
The target of a further assay is SERPINB3 (human) (UniProt P29508). The description is as above.
A further assay has as its target NAP1L1 (human) (UniProt P55209). The description is as above.
The next assay deals with SYNPO (human) (UniProt Q8N3V7). Described as above.
Another assay has as its target CALML5 (human) (UniProt Q9NZT1). The description is as above.
The next assay addresses RPL7 (human) (UniProt P18124). The description is as above.
A further assay has as its target PLOD1 (human) (UniProt Q02809). The assay is described as above.
The next assay concerns the target GSN (human) (UniProt P06396). The description is as above.
The next assay concerns the target RPS26 (human) (UniProt P62854). Described as above.
A further assay has as its target SYNCRIP (human) (UniProt O60506). Described as above.
In the next assay the target is HNRNPH1 (human) (UniProt P31943). The description is as above.
For a further assay, the target named is IL13RA2 (human) (UniProt Q14627). The description is as above.
The target of another assay is TELO2 (human) (UniProt Q9Y4R8). The assay is described as above.
The target of the next assay is PPFIBP1 (human) (UniProt Q86W92). The assay is described as above.
A further assay addresses COPA (human) (UniProt P53621). The assay is described as above.
The next assay has as its target GEMIN4 (human) (UniProt P57678). The description is as above.
Another assay deals with PURA (human) (UniProt Q00577). The description is as above.
A further assay deals with KCTD5 (human) (UniProt Q9NXV2). The description is as above.
A further assay has as its target LAMC1 (human) (UniProt P11047). Described as above.
A further assay has as its target TPM3 (human) (UniProt P06753). Described as above.
The target in another assay is SPARC (human) (UniProt P09486). Described as above.
The next assay concerns the target LCN1 (human) (UniProt P31025). The assay is described as above.
Another assay concerns the target LUC7L3 (human) (UniProt O95232). The assay is described as above.
A further assay addresses CAPZB (human) (UniProt P47756). Kind of assay: co-IP/MS, anti-FLAG IP of N-FLAG B3GNT2 cell lysate.
The next assay has as its target CKAP4 (human) (UniProt Q07065). Described as above.

Chain of TELO2 (human) (Q9Y4R8 whole entry): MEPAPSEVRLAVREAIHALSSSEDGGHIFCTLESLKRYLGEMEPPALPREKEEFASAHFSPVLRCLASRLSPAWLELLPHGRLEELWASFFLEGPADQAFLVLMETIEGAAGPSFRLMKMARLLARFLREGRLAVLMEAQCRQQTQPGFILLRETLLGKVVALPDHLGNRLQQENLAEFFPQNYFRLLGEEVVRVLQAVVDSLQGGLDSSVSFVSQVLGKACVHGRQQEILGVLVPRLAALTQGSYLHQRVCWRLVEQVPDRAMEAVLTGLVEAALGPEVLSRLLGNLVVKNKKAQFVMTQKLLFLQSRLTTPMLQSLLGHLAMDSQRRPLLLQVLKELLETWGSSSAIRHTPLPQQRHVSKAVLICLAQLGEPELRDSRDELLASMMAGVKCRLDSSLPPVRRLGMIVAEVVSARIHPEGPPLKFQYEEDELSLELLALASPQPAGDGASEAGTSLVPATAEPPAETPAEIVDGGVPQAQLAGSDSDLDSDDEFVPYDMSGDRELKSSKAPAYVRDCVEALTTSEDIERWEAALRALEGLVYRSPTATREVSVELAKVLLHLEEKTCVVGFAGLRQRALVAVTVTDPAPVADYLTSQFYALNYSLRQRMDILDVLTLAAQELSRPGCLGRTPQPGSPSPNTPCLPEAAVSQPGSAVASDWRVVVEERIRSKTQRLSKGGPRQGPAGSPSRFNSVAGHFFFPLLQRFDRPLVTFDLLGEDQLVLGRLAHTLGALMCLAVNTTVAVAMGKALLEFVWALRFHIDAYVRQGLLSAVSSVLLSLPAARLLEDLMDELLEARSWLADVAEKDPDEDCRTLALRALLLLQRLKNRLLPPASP
Chain of SRP14 (human) (P37108 2-136 limits assumed): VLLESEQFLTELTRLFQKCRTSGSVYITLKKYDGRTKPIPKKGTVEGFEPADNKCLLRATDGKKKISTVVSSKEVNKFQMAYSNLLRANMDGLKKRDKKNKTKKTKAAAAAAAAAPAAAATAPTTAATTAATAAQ
Chain of SYNCRIP (human) (O60506 other isoform, or with tags, fused parts or gaps limits assumed): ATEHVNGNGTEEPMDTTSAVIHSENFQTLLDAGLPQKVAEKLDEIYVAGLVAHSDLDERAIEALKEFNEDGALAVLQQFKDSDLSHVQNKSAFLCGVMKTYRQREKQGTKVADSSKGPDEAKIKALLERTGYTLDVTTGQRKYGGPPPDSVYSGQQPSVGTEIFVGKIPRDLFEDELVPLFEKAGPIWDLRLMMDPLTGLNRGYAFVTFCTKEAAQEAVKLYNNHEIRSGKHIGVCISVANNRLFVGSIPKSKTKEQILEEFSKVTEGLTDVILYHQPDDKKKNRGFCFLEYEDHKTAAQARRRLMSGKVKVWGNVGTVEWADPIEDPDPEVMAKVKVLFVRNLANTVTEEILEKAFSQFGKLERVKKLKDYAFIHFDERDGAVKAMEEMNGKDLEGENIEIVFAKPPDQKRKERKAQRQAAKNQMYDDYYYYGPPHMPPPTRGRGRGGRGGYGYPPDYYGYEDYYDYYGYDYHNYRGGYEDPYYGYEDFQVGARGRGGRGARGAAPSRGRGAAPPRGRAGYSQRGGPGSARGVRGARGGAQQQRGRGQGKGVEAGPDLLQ
Chain of CALML5 (human) (Q9NZT1 2-146 limits assumed): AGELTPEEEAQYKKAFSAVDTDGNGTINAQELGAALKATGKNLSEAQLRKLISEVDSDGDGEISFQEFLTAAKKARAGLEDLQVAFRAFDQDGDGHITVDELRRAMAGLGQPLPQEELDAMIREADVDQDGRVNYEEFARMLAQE
Chain of IL13RA2 (human) (Q14627 27-380 limits assumed): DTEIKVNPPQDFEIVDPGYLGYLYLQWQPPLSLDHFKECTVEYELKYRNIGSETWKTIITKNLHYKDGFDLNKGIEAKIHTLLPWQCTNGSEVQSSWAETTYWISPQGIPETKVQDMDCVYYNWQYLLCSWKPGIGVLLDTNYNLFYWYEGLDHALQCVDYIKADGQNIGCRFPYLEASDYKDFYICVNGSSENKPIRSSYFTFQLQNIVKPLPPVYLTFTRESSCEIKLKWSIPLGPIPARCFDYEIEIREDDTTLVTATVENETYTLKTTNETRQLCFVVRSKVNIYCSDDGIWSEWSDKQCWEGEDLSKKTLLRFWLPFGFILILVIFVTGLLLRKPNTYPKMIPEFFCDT
Chain of GSN (human) (P06396 28-782 limits assumed): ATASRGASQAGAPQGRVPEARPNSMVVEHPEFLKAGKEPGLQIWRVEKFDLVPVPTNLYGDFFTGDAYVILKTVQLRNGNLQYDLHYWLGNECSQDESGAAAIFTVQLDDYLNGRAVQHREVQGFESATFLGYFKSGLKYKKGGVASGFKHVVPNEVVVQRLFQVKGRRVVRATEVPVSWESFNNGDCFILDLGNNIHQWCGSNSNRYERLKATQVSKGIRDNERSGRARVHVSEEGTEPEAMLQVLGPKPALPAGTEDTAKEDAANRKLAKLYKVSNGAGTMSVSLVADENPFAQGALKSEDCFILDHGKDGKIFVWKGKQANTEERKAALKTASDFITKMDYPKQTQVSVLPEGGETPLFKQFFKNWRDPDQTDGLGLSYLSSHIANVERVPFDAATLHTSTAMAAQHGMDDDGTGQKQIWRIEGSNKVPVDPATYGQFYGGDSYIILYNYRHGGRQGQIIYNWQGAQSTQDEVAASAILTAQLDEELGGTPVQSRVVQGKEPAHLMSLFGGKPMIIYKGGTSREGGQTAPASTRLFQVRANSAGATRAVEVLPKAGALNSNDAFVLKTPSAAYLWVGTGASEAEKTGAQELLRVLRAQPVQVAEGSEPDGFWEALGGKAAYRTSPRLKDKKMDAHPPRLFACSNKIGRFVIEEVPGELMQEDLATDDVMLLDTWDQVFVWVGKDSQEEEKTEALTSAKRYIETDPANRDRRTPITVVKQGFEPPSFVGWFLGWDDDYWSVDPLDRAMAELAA
Chain of PPFIBP1 (human) (Q86W92 other isoform, or with tags, fused parts or gaps limits assumed): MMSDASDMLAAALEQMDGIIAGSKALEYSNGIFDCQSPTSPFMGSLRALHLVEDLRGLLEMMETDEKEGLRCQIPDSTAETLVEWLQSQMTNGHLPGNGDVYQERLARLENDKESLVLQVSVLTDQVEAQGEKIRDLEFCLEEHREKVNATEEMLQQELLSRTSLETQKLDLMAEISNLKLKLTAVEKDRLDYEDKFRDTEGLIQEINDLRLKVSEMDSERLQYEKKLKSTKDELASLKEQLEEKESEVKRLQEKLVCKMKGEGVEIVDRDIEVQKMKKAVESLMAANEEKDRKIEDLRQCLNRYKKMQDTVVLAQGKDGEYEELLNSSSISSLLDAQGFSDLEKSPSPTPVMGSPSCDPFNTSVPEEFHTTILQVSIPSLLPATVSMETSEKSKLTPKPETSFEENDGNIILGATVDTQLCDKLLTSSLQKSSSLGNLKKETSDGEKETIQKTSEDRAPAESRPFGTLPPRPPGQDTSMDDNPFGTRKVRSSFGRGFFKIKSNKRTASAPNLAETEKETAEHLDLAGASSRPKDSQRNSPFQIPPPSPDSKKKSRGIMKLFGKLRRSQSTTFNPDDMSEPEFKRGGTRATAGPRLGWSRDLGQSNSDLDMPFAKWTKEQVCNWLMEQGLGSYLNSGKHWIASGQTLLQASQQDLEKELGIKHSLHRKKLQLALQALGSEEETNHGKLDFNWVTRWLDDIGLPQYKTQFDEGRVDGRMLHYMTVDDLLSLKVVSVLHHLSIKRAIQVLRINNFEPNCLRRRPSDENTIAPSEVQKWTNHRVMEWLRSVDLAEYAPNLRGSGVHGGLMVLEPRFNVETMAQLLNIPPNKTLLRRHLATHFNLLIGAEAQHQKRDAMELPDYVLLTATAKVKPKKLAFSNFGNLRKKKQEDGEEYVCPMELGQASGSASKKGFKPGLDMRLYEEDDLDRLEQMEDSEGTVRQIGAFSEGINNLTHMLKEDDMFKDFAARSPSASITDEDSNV
Chain of PURA (human) (Q00577 2-322 limits assumed): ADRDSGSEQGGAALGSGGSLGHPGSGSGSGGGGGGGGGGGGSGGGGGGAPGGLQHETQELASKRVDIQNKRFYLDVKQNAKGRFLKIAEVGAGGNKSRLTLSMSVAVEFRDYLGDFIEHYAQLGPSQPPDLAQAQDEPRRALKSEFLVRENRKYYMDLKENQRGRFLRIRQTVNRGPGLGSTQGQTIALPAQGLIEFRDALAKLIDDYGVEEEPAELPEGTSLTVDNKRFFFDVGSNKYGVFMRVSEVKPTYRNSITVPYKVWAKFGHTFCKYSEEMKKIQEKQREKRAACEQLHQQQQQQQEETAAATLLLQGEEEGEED
Chain of TTC13 (human) (Q8NBP0 other isoform, or with tags, fused parts or gaps limits assumed): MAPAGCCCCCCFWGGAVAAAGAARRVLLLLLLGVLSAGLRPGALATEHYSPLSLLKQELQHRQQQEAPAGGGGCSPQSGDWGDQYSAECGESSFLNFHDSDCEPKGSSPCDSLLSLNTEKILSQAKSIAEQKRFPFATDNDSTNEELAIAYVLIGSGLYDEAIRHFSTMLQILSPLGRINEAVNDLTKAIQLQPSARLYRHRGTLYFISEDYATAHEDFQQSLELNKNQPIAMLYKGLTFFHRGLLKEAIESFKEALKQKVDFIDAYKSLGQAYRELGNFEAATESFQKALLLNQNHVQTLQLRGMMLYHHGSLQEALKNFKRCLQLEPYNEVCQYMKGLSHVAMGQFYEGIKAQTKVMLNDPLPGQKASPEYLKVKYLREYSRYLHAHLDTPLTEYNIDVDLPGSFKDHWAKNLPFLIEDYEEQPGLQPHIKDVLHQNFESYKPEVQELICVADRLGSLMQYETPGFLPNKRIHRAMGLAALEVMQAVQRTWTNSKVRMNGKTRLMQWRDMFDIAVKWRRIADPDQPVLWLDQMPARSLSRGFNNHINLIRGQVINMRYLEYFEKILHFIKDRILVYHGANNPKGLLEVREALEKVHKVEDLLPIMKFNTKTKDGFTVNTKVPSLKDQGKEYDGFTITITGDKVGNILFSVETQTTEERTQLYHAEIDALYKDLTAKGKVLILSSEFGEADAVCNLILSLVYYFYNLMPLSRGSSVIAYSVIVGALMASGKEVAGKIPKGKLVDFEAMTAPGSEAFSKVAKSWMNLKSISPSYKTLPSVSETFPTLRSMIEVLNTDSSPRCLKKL

With “C-terminal FLAG tagged B3GNT2 (from UniProt Q9NY97 1-397) (enzyme)”, the co-IP mass spectrometry count (C-term flag) with SRP14 (human) turned out to be 3; with TIMP3 (human), 3; with TCP1 (human) it was 3; in the assay with TAF15 (human), 10; with TFAM (human), 3; with EIF3I (human), 3. For the same substance, the co-IP mass spectrometry count (C-term flag) with MAGED2 (human) and in the assay with SUPT16H (human) was 3 each time. Besides, the co-IP mass spectrometry count with DHX9 (human) amounted to 5; with CCT3 (human), 5; in the assay with RPL8 (human) it was 15; in the assay with EIF3A (human), 3; in the assay with EMILIN1 (human) it was 3; with SERPINB3 (human) it was 9. Besides, the co-IP mass spectrometry count in the assay with SYNPO (human) was 7; with CALML5 (human), 4; in the assay with RPL7 (human) it was 21; in the assay with GSN (human), 3; in the assay with RPS26 (human), 11; in the assay with SYNCRIP (human) it was 13. In addition, the co-IP mass spectrometry count came out at 2 with IL13RA2 (human); 3 in the assay with TELO2 (human); 3 in the assay with PPFIBP1 (human); 5 with GEMIN4 (human); 3 in the assay with KCTD5 (human); 5 in the assay with TPM3 (human). In addition, the co-IP mass spectrometry count with LCN1 (human) was 11. In addition, the co-IP/MS count, C-term flag amounted to 2 in the assay with CPT1A (human); 4 with TTC13 (human); 4 in the assay with NAP1L1 (human); 4 in the assay with PLOD1 (human); 15 in the assay with HNRNPH1 (human); 2 with COPA (human). Further, the co-IP/MS count, C-term flag with PURA (human) was 3; in the assay with LAMC1 (human), 4; with SPARC (human), 4; with LUC7L3 (human) it was 3.

Consider “N-terminal FLAG tagged B3GNT2 (from UniProt Q9NY97 1-397) (enzyme)”, for which the co-IP mass spectrometry count with CAPZB (human) and in the assay with CKAP4 (human) was 2 throughout.
